Source: patent publication US20060166920A1, “Oligonucleotide based therapeutics” (Regents of the University of Michigan, priority 2004, published 2006)

Legend:
[1] = tested on: human Bcl-xL; assay: Western blot of PC-3 cells transfected with Bcl-xL siRNA cassettes; type: cell-based; settings: inferred from transfection efficiency of 40% to 50%
Experimental: (§1) Human prostate cancer PC-3 cells and human breast cancer MCF-7 cells were transfected with the designed Bcl-xL dsRNA (siRNA) cassettes, using a transferrin-liposome system (LipofectaminePlus, Invitrogen). Briefly, 5×10^5 cells were plated per well in 6-well plates. After overnight culture, the cells were 60% to 70% confluent. The transfection was performed according to the manufacturer's instruction, with 0.4 μg siRNA cassette DNA per well. The cells were cultured for 48 hr, then harvested and cell lysates were made for Western blot analysis. 15 μg of protein were added to each lane for SDS-PAGE. […] Similar results were also observed in MCF-7 cells (See, e.g., FIG. 2). […] Therefore, with efficient delivery to the cells, the Bcl-xL siRNA effectively induces cell death.

[2] = tested on: Bcl-xS; assay: as above; type: cell-based, human; settings: 0.4 μg siRNA cassette DNA per well, 48 hr
Experimental: as §1

[3] = tested on: human Bcl-xL; assay: Western blot of MCF-7 cells transfected with Bcl-xL siRNA cassettes; type: cell-based
Experimental: as §1

[4] = tested on: Bcl-xS; assay: as above; type: cell-based, human; settings: 0.4 μg siRNA cassette DNA per well, 48 hr
Experimental: as §1

[5] = tested on: human breast cancer MCF-7 cells; assay: Cell death of MCF-7 cells after transfection; type: cell-based; settings: MCF-7 cells 48 hr after transfection of siRNA cassette
Experimental: as §1
MCF-7 and PC-3 cells were transfected with psiBcl-xL (transfection conditions were performed as described above). In some experiments, FuGene 6 (Roche) was used due to low toxicity and high efficiency for plasmid transfection. Briefly, 60% confluent cells were transfected with 1-3 μg psiBcl-xL or psiLuc DNA per well in a 6-well plate (DNA:FuGene 6 ratio=1 μg:3 μl). […] The transfection efficiency of FuGene 6 (as detected by green fluorescence protein (GFP) expression; psiBcl-xL posseses the green fluorescence protein (GFP) gene, See, e.g., FIG. 4) for MCF-7 cells was about 40% -50%. […]

| Molecule | Bcl-xL gene knockdown in the cells transfected [1] [%] | effect on Bcl-xS expression [2] | down-regulation of Bcl-xL ([3]; 0.4 μg siRNA cassette DNA per well, LipofectaminePlus, 48 hr) [%] | Bcl-xL down-regulation in the transfected cells ([3]; inferred from transfection efficiency of 40%-50%) [%] | effect on Bcl-xS expression [4] | cell death [5] |
| --- | --- | --- | --- | --- | --- | --- |
| siRNA #2: Bcl-xL small hairpin siRNA cassette, SEQ ID NO: 4, 76 bp (nucleic acid, listed as Homo sapiens, expressed or natural sequence; the letters are possibly those of the target site) DNA: GGATCCCGCTTGTCTACGCTTTCCACGCATTGATATCCGTGCGTGGAAAGCGTAGACAAGTTTTTTCCAAAAGCTT | ~100 | without significantly affecting Bcl-xS expression | > 50 | ~100 | without significantly affecting Bcl-xS expression | up to 50% |
| siRNA #3: Bcl-xL small hairpin siRNA cassette, SEQ ID NO: 5, 76 bp (nucleic acid, listed as Homo sapiens, expressed or natural sequence; the letters are possibly those of the target site) DNA: GGATCCCGCGATCCGACTCACCAATACCTTTGATATCCGAGGTATTGGTGAGTCGGATCGTTTTTTCCAAAAGCTT | ~100 | without significantly affecting Bcl-xS expression | – | – | – | somewhat less cell death |
